Results published in patent publication US20220281965A1 (AstraZeneca / MedImmune, published 2022).

Columns and labels:
[1] = target: T1, mature recombinant human GDF-15 with an N-terminal Flag and His tag, biotinylated (human, UniProt Q99988 197-308, chemically biotinylated with EZ link Sulfo-NHS-LC-Biotin, sites not stated); assay: SPR Biacore 8K, 25 C, biotinylated GDF-15 on streptavidin C1 chip, Fab as analyte
T1 construct: not shown: N-terminal Flag and His tags
T1 sequence: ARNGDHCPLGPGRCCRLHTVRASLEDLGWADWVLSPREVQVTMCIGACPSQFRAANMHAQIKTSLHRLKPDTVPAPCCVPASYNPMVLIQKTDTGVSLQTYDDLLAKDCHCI
Protocol: (§1) The experiments were carried out using mature recombinant human GDF-15, human GDF-15 H202D variant, mouse GDF-15, and cynomolgus GDF-15 with an N-terminal Flag and His tag. All species were chemically biotinylated using EZ link Sulfo-NHS-LC-Biotin (Thermo).
(§2) Streptavidin was covalently immobilized to a C1 chip surface using standard amine coupling techniques at a concentration of 4 μg/ml in 10 mM Sodium acetate pH 4.5. Recombinant biotinylated GDF-15 species were titrated onto the streptavidin chip surface in HBS-EP+ buffer to enable Fab binding.
(§3) Multiple buffer-only injections were made under the same conditions to allow for double reference subtraction of the final sensorgram sets, which were analyzed using Biacore 8K Evaluation Software. The chip surface was fully regenerated with pulses of 50 mM NaOH.

[2] = target: T2, mature recombinant human GDF-15 H202D variant with an N-terminal Flag and His tag, biotinylated (human, UniProt Q99988 197-308, chemically biotinylated with EZ link Sulfo-NHS-LC-Biotin, sites not stated); assay: as above
T2 construct: also called Human H202D; not shown: N-terminal Flag and His tags
T2 chain: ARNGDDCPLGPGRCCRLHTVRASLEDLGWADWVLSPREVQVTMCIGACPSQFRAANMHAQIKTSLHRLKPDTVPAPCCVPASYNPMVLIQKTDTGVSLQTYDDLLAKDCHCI
Protocol: as §1, §2, §3

[3] = target: T3, mature recombinant cynomolgus GDF-15 with an N-terminal Flag and His tag, biotinylated (cynomolgus, UniProt G7PWZ3 197-308, chemically biotinylated with EZ link Sulfo-NHS-LC-Biotin, sites not stated); assay: as above
T3 construct: not shown: N-terminal Flag and His tags
T3 sequence: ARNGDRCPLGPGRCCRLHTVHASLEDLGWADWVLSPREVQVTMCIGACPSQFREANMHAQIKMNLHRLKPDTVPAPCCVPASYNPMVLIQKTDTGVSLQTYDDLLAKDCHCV
Protocol: as §1, §2, §3

[4] = target: T4, mature recombinant mouse GDF-15 with Flag and His tags (mouse, UniProt Q9Z0J7 189-303); assay: SPR Biacore 8K, biotinylated mouse GDF-15 on streptavidin C1 chip, Fab as analyte
T4 construct: also called Flag tagged mouse GDF-15; not shown: FLAG and poly-His tags immediately C-terminal to the furin cleavage site (N-terminal on the mature protein)
T4 sequence: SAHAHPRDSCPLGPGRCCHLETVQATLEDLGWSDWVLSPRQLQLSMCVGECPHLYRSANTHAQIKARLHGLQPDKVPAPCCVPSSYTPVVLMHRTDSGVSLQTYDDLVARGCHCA
Protocol: as §1, §2, §3

Kd [1]: 9.24 nM
koff [1]: 0.0386 s⁻¹
kon [1]: 4.18e+06 M⁻¹ s⁻¹
Kd [2]: 9.5 nM
koff [2]: 0.0385 s⁻¹
kon [2]: 4.06e+06 M⁻¹ s⁻¹
Kd [3]: 15 nM
koff [3]: 0.0686 s⁻¹
kon [3]: 4.58e+06 M⁻¹ s⁻¹
binding result [4]: no binding
B1: AB1170247 Fab (Fab, V domains shown)
VH: QVQLVQSGSELKKPGASVKVSCKASGYTFTSYDINWVRQAPGQGLEWIGWIYPRDGISKYNEKFKGRATLTVDTSASTAYMELSSLRSEDTAVYYCAGTYDPAYFDYWGQGTTVTVSS
VL: EIVLTQSPATLSVSPGERATLSCRASQSISYYLHWYQQKPGQAPRLLIKYASQSISGVPDRFSGSGSGTDFTLKISRVEAEDFGVYYCQQSNSWPYTFGGGTKVEIK
notes: Fab of the humanized antibody, expressed as in Spooner et al. 2015
